Among the data in publication PMC3218832 are binding signal (Kd, unit not seen), binding signal and Kd values, retold here.

pKd: −log10 of the molar value.

For data set [1], the target named is RELA (p65) subunit of heterodimer;p50 subunit (Homo sapiens;Homo sapiens) (UniProt Q04206+P19838). Nature of the data set: footprint. The conditions noted are these: UV laser footprinting: 10 mM Tris pH 7.4, 75 mM NaCl, 1 mM EDTA, 1 mM DTT, 200 ug/ml BSA, 0.005% NP-40; microarray buffer in Additional file 1 (not seen); low values mean tight binding.
Sequence of RELA (p65) subunit of heterodimer;p50 subunit (Homo sapiens;Homo sapiens) (UniProt Q04206+P19838) (Q04206 1-307, chain 1 of 2): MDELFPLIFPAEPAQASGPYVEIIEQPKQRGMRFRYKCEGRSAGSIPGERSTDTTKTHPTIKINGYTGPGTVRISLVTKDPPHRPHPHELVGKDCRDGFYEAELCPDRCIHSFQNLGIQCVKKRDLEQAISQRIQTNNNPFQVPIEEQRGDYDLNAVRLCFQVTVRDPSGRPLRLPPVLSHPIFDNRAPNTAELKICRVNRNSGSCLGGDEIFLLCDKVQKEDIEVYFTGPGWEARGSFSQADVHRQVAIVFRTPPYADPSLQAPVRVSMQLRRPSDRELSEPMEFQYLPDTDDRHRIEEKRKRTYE
Sequence of RELA (p65) subunit of heterodimer;p50 subunit (Homo sapiens;Homo sapiens) (UniProt Q04206+P19838) (P19838 7-356, chain 2 of 2): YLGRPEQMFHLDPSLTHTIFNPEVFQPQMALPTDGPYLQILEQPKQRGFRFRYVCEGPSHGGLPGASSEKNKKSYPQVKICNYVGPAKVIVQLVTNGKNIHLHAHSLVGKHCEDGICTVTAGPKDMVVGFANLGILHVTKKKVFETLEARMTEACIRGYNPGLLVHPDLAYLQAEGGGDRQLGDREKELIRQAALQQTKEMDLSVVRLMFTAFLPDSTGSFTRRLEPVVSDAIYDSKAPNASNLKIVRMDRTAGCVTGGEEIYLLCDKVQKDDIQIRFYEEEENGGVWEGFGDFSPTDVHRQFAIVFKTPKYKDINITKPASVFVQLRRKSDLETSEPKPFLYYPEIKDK
Data set [2] deals with RELA (p65) subunit of heterodimer;p52 subunit (Homo sapiens;Homo sapiens) (UniProt Q04206+Q00653). The data set can be described thus: footprint. The conditions noted are these: UV laser footprinting: 10 mM Tris pH 7.4, 75 mM NaCl, 1 mM EDTA, 1 mM DTT, 200 ug/ml BSA, 0.005% NP-40; microarray buffer in Additional file 1 (not seen); low values mean tight binding.
Sequence of RELA (p65) subunit of heterodimer;p52 subunit (Homo sapiens;Homo sapiens) (UniProt Q04206+Q00653) (Q04206 1-307, chain 1 of 2): as the sequence (Q04206 1-307, chain 1 of 2) above
Sequence of RELA (p65) subunit of heterodimer;p52 subunit (Homo sapiens;Homo sapiens) (UniProt Q04206+Q00653) (Q00653 4-332, chain 2 of 2): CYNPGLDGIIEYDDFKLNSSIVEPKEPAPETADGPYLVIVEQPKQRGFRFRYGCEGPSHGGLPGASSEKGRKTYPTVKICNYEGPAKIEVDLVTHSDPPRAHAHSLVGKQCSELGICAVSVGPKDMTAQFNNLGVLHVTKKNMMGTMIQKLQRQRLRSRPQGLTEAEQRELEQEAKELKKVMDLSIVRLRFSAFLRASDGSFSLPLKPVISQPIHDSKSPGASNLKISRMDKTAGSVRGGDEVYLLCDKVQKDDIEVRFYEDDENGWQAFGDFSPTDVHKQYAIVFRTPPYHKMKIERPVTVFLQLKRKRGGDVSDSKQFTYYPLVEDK
Data set [3] addresses RELARELA (p65 homodimer) (Homo sapiens) (UniProt Q04206). The data set can be described thus: footprint. As to conditions: UV laser footprinting: 10 mM Tris pH 7.4, 75 mM NaCl, 1 mM EDTA, 1 mM DTT, 200 ug/ml BSA, 0.005% NP-40; microarray buffer in Additional file 1 (not seen); low values mean tight binding.
In data set [4] the test system is RELA (p65) subunit of heterodimer;p50 subunit (Homo sapiens;Homo sapiens). Nature of the data set: protein binding microarray. As to conditions: Footprinting/EMSA: 10 mM Tris pH 7.4, 75 mM NaCl, 1 mM EDTA, 1 mM DTT, 200 ug/ml BSA, 0.005% NP-40, EMSA-Seq: 12 mM HEPES pH 7.8, 75 mM KCl, 4 mM ….
In data set [5] the test system is RELA (p65) subunit of heterodimer;p52 subunit (Homo sapiens;Homo sapiens). The data set can be described thus: protein binding microarray. The conditions noted are these: Footprinting/EMSA: 10 mM Tris pH 7.4, 75 mM NaCl, 1 mM EDTA, 1 mM DTT, 200 ug/ml BSA, 0.005% NP-40, EMSA-Seq: 12 mM HEPES pH 7.8, 75 mM KCl, 4 mM ….
In data set [6] the test system is RELA (p65) subunit of heterodimer;p50 subunit (Homo sapiens;Homo sapiens). Nature of the data set: EMSA-Seq. As to conditions: Footprinting/EMSA: 10 mM Tris pH 7.4, 75 mM NaCl, 1 mM EDTA, 1 mM DTT, 200 ug/ml BSA, 0.005% NP-40, EMSA-Seq: 12 mM HEPES pH 7.8, 75 mM KCl, 4 mM ….
Data set [7] concerns RELA (p65) subunit of heterodimer;p52 subunit (Homo sapiens;Homo sapiens). Nature of the data set: EMSA-Seq. As to conditions: Footprinting/EMSA: 10 mM Tris pH 7.4, 75 mM NaCl, 1 mM EDTA, 1 mM DTT, 200 ug/ml BSA, 0.005% NP-40, EMSA-Seq: 12 mM HEPES pH 7.8, 75 mM KCl, 4 mM ….
The subject of data set [8] is RELARELA (p65 homodimer) (Homo sapiens). The data set can be described thus: EMSA-Seq. The conditions noted are these: Footprinting/EMSA: 10 mM Tris pH 7.4, 75 mM NaCl, 1 mM EDTA, 1 mM DTT, 200 ug/ml BSA, 0.005% NP-40, EMSA-Seq: 12 mM HEPES pH 7.8, 75 mM KCl, 4 mM ….
For data set [9], the system named is RELA (p65) subunit of heterodimer;p50 subunit (Homo sapiens;Homo sapiens). Nature of the data set: UV laser footprinting. The conditions noted are these: Footprinting/EMSA: 10 mM Tris pH 7.4, 75 mM NaCl, 1 mM EDTA, 1 mM DTT, 200 ug/ml BSA, 0.005% NP-40, EMSA-Seq: 12 mM HEPES pH 7.8, 75 mM KCl, 4 mM ….
Data set [10] relates to RELA (p65) subunit of heterodimer;p52 subunit (Homo sapiens;Homo sapiens). Nature of the data set: UV laser footprinting. The conditions noted are these: Footprinting/EMSA: 10 mM Tris pH 7.4, 75 mM NaCl, 1 mM EDTA, 1 mM DTT, 200 ug/ml BSA, 0.005% NP-40, EMSA-Seq: 12 mM HEPES pH 7.8, 75 mM KCl, 4 mM ….
Data set [11] relates to RELARELA (p65 homodimer) (Homo sapiens). The data set can be described thus: protein binding microarray. As to conditions: Footprinting/EMSA: 10 mM Tris pH 7.4, 75 mM NaCl, 1 mM EDTA, 1 mM DTT, 200 ug/ml BSA, 0.005% NP-40, EMSA-Seq: 12 mM HEPES pH 7.8, 75 mM KCl, 4 mM ….
The test system is the same in data set [12]. The data set can be described thus: UV laser footprinting. As to conditions: Footprinting/EMSA: 10 mM Tris pH 7.4, 75 mM NaCl, 1 mM EDTA, 1 mM DTT, 200 ug/ml BSA, 0.005% NP-40, EMSA-Seq: 12 mM HEPES pH 7.8, 75 mM KCl, 4 mM ….

Sequence of RELARELA (p65 homodimer) (Homo sapiens) (UniProt Q04206) (Q04206 1-307): as the sequence (Q04206 1-307, chain 1 of 2) above

Consider AGGAAATTCCG (double strand), for which the binding signal (Kd, unit not seen) amounted to 4.6 in data set [1], 1.7 in data set [2] and 3.25 in data set [3].

In the case of AGGGGGATCTG microarray probes, the values for the binding signal in data set [4] and in [5] were 2.39 z-score and 1.76 z-score, respectively.

Consider CTGGGGATTTA 11-mer in EMSA-Seq ligands, for which the binding signal in [6] turned out to be 24.2 z-score; in data set [7] it was 19.5 z-score; in [8], 10.8 z-score.

CTGGGGATTTA footprint probe: the pKd is 7.80 in data set [9] and 7.86 in data set [10].

Regarding AGGGGGATCTG 11-mer in EMSA-Seq ligands, the figures for the binding signal in [6] and in [7] were 23.1 z-score and 18.4 z-score, respectively.

With AGGGGGATCTG footprint probe, the figures for the pKd in data set [9] and in [10] were 7.98 and 8.70, respectively.

Turning to AGGAAATTCCG 11-mer in EMSA-Seq ligands, the figures for the binding signal in data set [6], in data set [7] and in data set [8] were 20.4 z-score, 13 z-score and 40.9 z-score, respectively.

With AGGAAATTCCG microarray probes, the values for the binding signal in data set [4], in data set [5] and in [11] were 1.2 z-score, 0.55 z-score and 3.7 z-score, respectively.

For the sequence AGGGGAAGTTA 11-mer in EMSA-Seq ligands, the results for the binding signal in [6], in [7] and in data set [8] were 35.4 z-score, 27.5 z-score and 3.78 z-score, respectively.

As for AGGGGAAGTTA footprint probe, the pKd in data set [9] is 7.59; in [10] it was 7.70.

As for AGGGGGATCTG (double strand), the binding signal (Kd, unit not seen) in data set [1] was 10.5; in [2] it was 2.

For AGGAAATTCCG footprint probe, the negative logarithm of the Kd (pKd) was 8.34 in [9], 8.77 in data set [10] and 8.49 in data set [12].
